Laboratory results taken from patent publication US20070110747A1 (Amgen, published 2007).

Columns and labels:
[1] = target: T1, human sclerostin, mature form (signal peptide removed) (human, UniProt Q9BQB4 24-213); test: Biacore cross-blocking on immobilised human sclerostin; RU of 1:1 mixture, competitor Ab-A
T1 construct: 190 amino acid glycoprotein; also called SOST; recombinant human sclerostin
T1 sequence: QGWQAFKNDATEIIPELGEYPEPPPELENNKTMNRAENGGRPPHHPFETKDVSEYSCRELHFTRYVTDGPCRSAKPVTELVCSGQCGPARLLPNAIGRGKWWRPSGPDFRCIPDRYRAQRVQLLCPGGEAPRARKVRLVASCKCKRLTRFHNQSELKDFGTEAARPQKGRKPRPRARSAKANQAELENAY
Protocol: (§1) The antibodies to be tested were diluted to a concentration of 200 ug/ml in HBS-EP buffer (being 10 mM HEPES pH 7.4, 150 mM NaCl, 3 mM EDTA, 0.005% (v/v) Surfactant P20) and then mixed in a one to one molar ratio (on a binding site basis) to generate the test mixture. This test mixture thus contained each antibody at a concentration of 100 ug/ml (1.3 um on a binding site basis). Separate solutions containing each of the antibodies in the test mix alone were also prepared. These solutions contained the individual antibodies in HBS-EP buffer at a concentration of 100 ug/ml (1.3 um on a binding site basis).
(§2) 20 μL of the test mixture was passed over the sclerostin-coated chip at a flow rate of 10 μL/min and the amount of binding recorded. The chip was then treated with two 60 second pulses of 30 mM HCl to remove all of the bound antibody. A solution containing only one of the antibodies of the test mixture (at 1.3 μM in the same buffer as the test mixture on a binding site basis) was then passed over the chip in the same manner as the test mixture and the amount of binding recorded. The chip was again treated to remove all of the bound antibody and finally a solution containing the other antibody from the test mixture alone (at 1.3 μM in the same buffer as the test mixture on a binding site basis) was passed over the chip and the amount of binding recorded.
(§3) The table below show the results from cross-blocking assays on a range of different antibodies. The values in each square of the table represent the amount of binding (in RU) seen when the antibodies (at 1.3 μM on a binding site basis) or buffer indicated in the top row of the table were mixed with the antibodies (at 1.3 uM on a binding site basis) or buffer indicated in the first column of the table.

[2] = target: T1, human sclerostin, mature form (signal …); test: Biacore cross-blocking on immobilised human sclerostin; RU of 1:1 mixture, competitor Ab-4
Protocol: as §1, §2, §3

[3] = target: T1, human sclerostin, mature form (signal …); test: Biacore cross-blocking on immobilised human sclerostin; RU of 1:1 mixture, competitor Ab-13
Protocol: as §1, §2, §3

[4] = target: T2, rat sclerostin peptide KWWRPNGPDFRCIPDRYRAQRV (rat); test: ELISA on rat sclerostin peptides coupled to sulfhydryl binding plates, antibody at 1 ug/ml
T2 construct: Coupled to the plate through its cysteine
T2 peptide: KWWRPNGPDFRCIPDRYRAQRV
Protocol: A series of overlapping peptides (each peptide being approximately 20-25 amino acids long) were synthesized based on the known amino acid sequence of rat sclerostin (SEQ ID NO:98). […] This enabled the peptides to be bound to the assay plates by covalent coupling, using commercially available sulfhydryl binding plates (Costar), at a concentration of […], in phosphate buffered saline (PBS: pH 6.5) containing 1 mM EDTA. Following incubation for 1 hour at room temperature, the plates were washed three times with PBS containing 0.5% Tween 20. The plates were blocked by incubation with a PBS solution containing 0.5% fish skin gelatin (Sigma) for 30 minutes at room temperature and then washed three times in PBS containing 0.5% Tween 20.
Antibodies to be tested were diluted to 1 μg/ml in PBS containing 0.5% fish skin gelatin and incubated with the peptide-coated plates for 1 hour at room temperature. Excess antibody was removed by three washes with PBS, 0.5% Tween 20. […] Finally the plates were incubated with a horseradish peroxidase chromogenic substrate (TMB-Stable Stop, RDI) for 5 minutes at room temperature, the color development was stopped with acid, and the plates' optical density measured at 450 nm.

[5] = target: T1, human sclerostin, mature form (signal …); test: Biacore cross-blocking on immobilised human sclerostin; RU of 1:1 mixture, competitor Ab-3
Protocol: as §1, §2, §3

[6] = target: T1, human sclerostin, mature form (signal …); test: Biacore cross-blocking on immobilised human sclerostin; RU of 1:1 mixture, competitor Ab-19
Protocol: as §1, §2, §3

Row | binding (RU) [1] [RU] | binding (RU) [2] [RU] | binding (RU) [3] [RU] | binding result [4] | binding (RU) [5] [RU] | binding (RU) [6] [RU] | Binder
1 | 863 | 789 | 1020 | binds | 892 | – | Antibody 19 (antibody, V domains shown, also called Ab-19) VH: EVQLQQSGPELVKPGASVKMSCKASGFTFTDYIMHWVKQKPGQGLEWIGYINPYNDDTEYNEKFKGKATLTSDKSSSTAYMDLSSLTSEGSAVYYCARSIYYYDAPFAYWGQGTLVTVSS VL: DIQMTQTTSSLSASLGDRVNISCRASQDISSYLNWYQQKPDGTVKLLIYSTSRLNSGVPSRFSGSGSGTDYSLTISNLAQEDIATYFCQQDIKHPTFGGGTKLELKR
2 | 1110 | 1010 | – | – | 432 | 1040 | Antibody 13 (antibody, mouse IgG1, kappa, V domains shown, … = EVQ); also called Ab-13) VH: EVQLQQSGPELVKPGASVKMSCKASGYTFTDYYMNWVKQSHGESLEWIGDINPYNDDTTYNHKFKGKATLTVDKSSNTAYMQLNSLTSEDSAVYYCARETAVITTNAMDYWGQGTSVTVSS VL: QIVLTQSPAIMSASPGEKVTMTCRASSSVTSSYLNWYQQKPGSSPKLWIYSTSNLASGVPARFSGSGSGTSYSLTISSVEAEDAATYYCQQYDFFPSTFGGGTKLEIKR
3 | – | 833 | 1080 | – | 946 | 868 | Antibody A (antibody, mouse IgG1, kappa, V domains shown, Rabbit-mouse chimeric antibody; mature chains (signal peptides cleaved off); also called Ab-A; Mab-A) VH: QSLEESGGRLVTPGTPLTLTCTASGFSLSSYWMNWVRQAPGEGLEWIGTIDSGGRTDYASWAKGRFTISRTSTTMDLKMTSLTTGDTARYFCARNWNLWGQGTLVTVSS VL: AQVLTQTPASVSAAVGGTVTINCQSSQSVYDNNWLAWFQQKPGQPPKLLIYDASDLASGVPSRFSGSGSGTQFTLTISGVQCADAATYYCQGAYNDVIYAFGGGTEVVVKR

Second part, the binder before the results:

Row | Binder | binding (RU) [1] [RU] | binding (RU) [2] [RU] | binding (RU) [3] [RU] | binding result [4] | binding (RU) [5] [RU] | binding (RU) [6] [RU]
4 | Antibody 3 (antibody, mouse IgG1, kappa, also called Ab-3) light: EIVLTQSPALMAASPGEKVTITCSVSSTISSNHLHWFQQKSDTSPKPWIYGTSNLASGVPVRFSGSGSGTSYSLTISSMEAEDAATYYCQQWSSYPLTFGAGTKLELRRADAAPTVSIFPPSSEQLTSGGASVVCFLNNFYPKDINVKWKIDGSERQNGVLNSWTDQDSKDSTYSMSSTLTLTKDEYERHNSYTCEATHKTSTSPIVKSFNRNEC heavy: EVQLQQSGAELVRPGALVKLSCTASDFNIKDFYLHWMRQRPEQGLDWIGRIDPENGDTLYDPKFQDKATLTTDTSSNTAYLQLSGLTSETTAVYYCSREADYFHDGTSYWYFDVWGAGTTITVSSAKTTPPSVYPLAPGSAAQTNSMVTLGCLVKGYFPEPVTVTWNSGSLSSGVHTFPAVLQSDLYTLSSSVTVPSSTWPSETVTCNVAHPASSTKVDKKIVPRDCGCKPCICTVPEVSSVFIFPPKPKDVLTITLTPKVTCVVVDISKDDPEVQFSWFVDDVEVHTAQTQPREEQFNSTFRSVSELPIMHQDWLNGKEFKCRVNSAAFPAPIEKTISKTKGRPKAPQVYTIPPPKEQMAKDKVSLTCMITDFFPEDITVEWQWNGQPAENYKNTQPIMDTDGSYFIYSKLNVQKSNWEAGNTFTCSVLHEGLHNHHTEKSLSHSPGK | 952 | 845 | 428 | – | – | 896
5 | Antibody 4 (antibody, mouse IgG1, kappa, V domains shown, also called Ab-4) VH: EVQLQQSGPELMKPGASVKMSCKASGYTFTDYNMHWVKQNQGKTLEWIGEINPNSGGAGYNQKFKGKATLTVDKSSTTAYMELRSLTSEDSAVYYCARLGYDDIYDDWYFDVWGAGTTVTVSS VL: DIQMTQITSSLSASLGDRVSISCRASQDISNYLNWYQQKPDGTFKLLIFYTSRLLSGVPSRFSGSGSGTDYSLTIYNLEQEDFATYFCQQGDTLPYTFGGGTKLEIKR | 860 | – | 1020 | – | 869 | 822
